The source of these data is article PMC5030626, “G-quadruplex aptamer targeting Protein A and its capability to detect Staphylococcus aureus demonstrated by ELONA”.

The term Kd denotes a measure of binding affinity in units of concentration.

Data set [1] concerns the target T1, Protein A, recombinant (P7837) (Staphylococcus aureus, UniProt P02976 37-327). Briefly: ELONA; signal in range of library control; ELONA and bead assay: 100 mM NaCl, 20 mM Tris-HCl pH 7.6, 10 mM MgCl2, 5 mM KCl, 1 mM CaCl2, 0.005% Tween 20, 21 C; CD: 25 mM Britton-Robinson pH 7.6, 100 mM NaCl, 10 mM MgCl2, 1 mM CaCl2, 5 mM KCl.
Data set [2] concerns the target T2, Protein A, native (Staphylococcus aureus, UniProt P38507 37-477). Briefly: CD difference spectrum; ELONA and bead assay: 100 mM NaCl, 20 mM Tris-HCl pH 7.6, 10 mM MgCl2, 5 mM KCl, 1 mM CaCl2, 0.005% Tween 20, 21 C; CD: 25 mM Britton-Robinson pH 7.6, 100 mM NaCl, 10 mM MgCl2, 1 mM CaCl2, 5 mM KCl.
Data set [3] concerns the target T1, Protein A, recombinant (P7837). Put plainly: ELONA; ELONA and bead assay: 100 mM NaCl, 20 mM Tris-HCl pH 7.6, 10 mM MgCl2, 5 mM KCl, 1 mM CaCl2, 0.005% Tween 20, 21 C; CD: 25 mM Britton-Robinson pH 7.6, 100 mM NaCl, 10 mM MgCl2, 1 mM CaCl2, 5 mM KCl. Particulars: protein: recombinant.
In data set [4] the target is T2, Protein A, native. The data set is described as above. Particulars: protein: native; label: 3'-biotin; G4 (parallel, di-/multimers) plus 5' imperfect hairpin.

With ATACCAGCTTATTCAATTAGCAACATGAGGGGGATAGAGGGGGTGGGTTC (structured_DNA) [PA#2/8[S1-50] (Bio)], in data set [1] (label: biotin (5' or 3'; 3' on cells), G4 plus 5' imperfect hairpin), the binding result was “no binding”. Regarding ATACCAGCTTATTCAATTAGCAACATGAGGGGGATAGAGGGGGTGGGTTC (structured_DNA) [PA#2/8[S1-50] (unlabelled)], the binding result with Protein A, native [2] (G4 plus 5' imperfect hairpin) was “binds”. Take ATACCAGCTTATTCAATTAGCAACATGAGGGGGATAGAGGGGG (structured_DNA) [PA#2/8[S1-43] (Bio)]: the binding result in data set [1] (label: biotin (5' or 3'), G4, mainly monomer, plus 5' imperfect hairpin) is “no binding”.

Turning to ATACCAGCTTATTCAATTAGCAACATGAGGGGGATAGAGGGGG (structured_DNA) [PA#2/8[S1-43] (unlabelled)], the binding result with Protein A, native [2] (G4, mainly monomer, plus 5' imperfect hairpin) is “binds”.

B1: PA#2/8[S1-58] (3'Bio) (structured_DNA)
DNA: ATACCAGCTTATTCAATTAGCAACATGAGGGGGATAGAGGGGGTGGGTTCTCTCGGCT
Consider B1, for which the equilibrium dissociation constant (Kd) in data set [3] (label: 3'-biotin, G4 plus 5' imperfect hairpin) is 11.3 ± 1.4 nM.

B2: PA#2/8[S1-58] (5'Bio) (structured_DNA)
DNA: B1 DNA
For B2, the Kd in data set [3] (label: 5'-biotin, G4 plus 5' imperfect hairpin) was found to be 23.7 ± 2 nM.

B3: PA#2/8[S1-58] (unlabelled) (structured_DNA)
DNA: B1 DNA
As for B3, the binding result with Protein A, native [2] (G4 plus 5' imperfect hairpin) is “binds”.

B4: PA#2/8 (3'Bio) (structured_DNA)
DNA: ATACCAGCTTATTCAATTAGCAACATGAGGGGGATAGAGGGGGTGGGTTCTCTCGGCTACAATCGTAATCAGTTAG
As to B4, in the data set with Protein A, native [4], the binding result is on record as “binds”. Moreover, in data set [3] (label: 3'-biotin, G4 (parallel, di-/multimers) plus 5' imperfect hairpin), the Kd was determined as 101 ± 5.9 nM.

B5: PA#2/8 (5'Bio) (structured_DNA)
DNA: B4 DNA
For B5, in data set [3] (label: 5'-biotin, G4 (parallel, di-/multimers) plus 5' imperfect hairpin), the Kd is 190 ± 13 nM.

B6: PA#2/8 (unlabelled) (structured_DNA)
DNA: B4 DNA
As for B6, the binding result with Protein A, native [2] (G4 (parallel, di-/multimers) plus 5' imperfect hairpin) is listed as “binds”.
